Reference: article PMC11118385 (bioRxiv, 2024)

How the values were obtained:
[1] = biological target: the molecule itself; test: cryo-EM structure
[2] = biological target: human mitochondrial Hsp70 (mortalin) R126W mutant (human, UniProt P38646 47-679, R126W); test: cryo-EM structure
Chain of human mitochondrial Hsp70 (mortalin) R126W mutant (P38646 47-679 R126W): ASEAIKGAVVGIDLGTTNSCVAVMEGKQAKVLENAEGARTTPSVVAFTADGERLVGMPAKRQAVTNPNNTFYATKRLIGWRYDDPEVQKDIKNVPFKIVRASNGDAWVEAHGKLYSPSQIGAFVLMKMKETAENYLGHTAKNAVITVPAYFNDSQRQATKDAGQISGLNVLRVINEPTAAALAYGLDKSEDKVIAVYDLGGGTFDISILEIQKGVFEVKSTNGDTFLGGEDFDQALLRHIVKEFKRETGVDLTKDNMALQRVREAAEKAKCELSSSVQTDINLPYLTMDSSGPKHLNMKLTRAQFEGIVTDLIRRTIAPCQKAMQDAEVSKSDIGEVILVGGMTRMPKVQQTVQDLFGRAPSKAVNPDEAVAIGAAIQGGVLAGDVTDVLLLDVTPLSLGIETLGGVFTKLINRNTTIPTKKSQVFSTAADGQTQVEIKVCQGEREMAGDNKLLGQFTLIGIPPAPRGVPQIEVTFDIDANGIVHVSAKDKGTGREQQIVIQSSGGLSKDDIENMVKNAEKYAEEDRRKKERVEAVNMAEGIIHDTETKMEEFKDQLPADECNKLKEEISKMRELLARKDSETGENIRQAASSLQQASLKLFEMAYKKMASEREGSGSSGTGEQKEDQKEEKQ

B1: human GrpEL1 (wild type) (natural protein)
chain: CTATKQKNSGQNLEEDMGQSEQKADPPATEKTLLEEKVKLEEQLKETVEKYKRALADTENLRQRSQKLVEEAKLYGIQAFCKDLLEVADVLEKATQCVPKEEIKDDNPHLKNLYEGLVMTEVQIQKVFTKHGLLKLNPVGAKFDPYEHEALFHTPVEGKEPGTVALVSKVGYKLHGRTLRPALVGVVKEA
How did the “stoichiometry N” value [1] turn out when B1 was run?
Its value is 2.

B2: human GrpEL1 Y173A mutant (natural protein)
chain: CTATKQKNSGQNLEEDMGQSEQKADPPATEKTLLEEKVKLEEQLKETVEKYKRALADTENLRQRSQKLVEEAKLYGIQAFCKDLLEVADVLEKATQCVPKEEIKDDNPHLKNLYEGLVMTEVQIQKVFTKHGLLKLNPVGAKFDPAEHEALFHTPVEGKEPGTVALVSKVGYKLHGRTLRPALVGVVKEA
Does B2 bind [2]?
Result: binds
